Test: yeast display, Sf9 membrane polyspecificity reagent, FACS + sequencing; frameworks hold sequencing errors
Outline: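 Sorting gates, low and high (top ~1%), were placed on anti-HA fluorescence to track expression and on streptavidin fluorescence to track reagent binding. A clone's polyreactivity label is taken from the gate it came out of. The reagent was 10% biotinylated, detergent-solubilized Sf9 membrane, applied for 1 hour at 4 °C to galactose-induced yeast display cells.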

Row | Sequence | polyreactivity (PSR sort gate)
1 | QVQLQDSVGCLVQAGGSLRLSCAASGSISIYGYMGWYRQAPGNERELVAAITAGGSTYYADSVKGRFTISRDNAKNTVYLLMKSLKPEDTAVYYCAPYEQRVYDLHYWGQGTQVTVSS | high polyreactivity
2 | QVQLVDSGGGLVQAGGSLRLSCAASGYTFPSKTMGWYRQAPGKERELVAAISGGGRTYYADSVKGRFTISRDNAKNTVYLQMNCLKPEDSAVYYCAKDSWYTQNRYNYWGQGTQVNVSS | low polyreactivity
3 | QVQLVESGGGLVQAGGSLRLSCAASGFTIAPDAMGWYRPAPGKERELVADISYSGGSKYYADSVKGRFTISRDTAKNTVYLQMNSLKPEDTAVYYCNAVIWWYWGRSYAYNYWGQGTQVTVSS | high polyreactivity
4 | QVQLVESGGGLVQAGGSLRLICAASGRIFGGNAMGWYRQAPGKERELVAPISRSGGSTYYADSVKVRFTISLDNAKNTVYLQMNSLIPEDTAVYYCAAVRRPGTGKYTEYDYWGQGTQVTVSS | high polyreactivity
5 | QVQLVESGGGLVQAGGSLRLSCAASGSTFRRYAMGWYRQAPGKERELVAAITTADITNYADSVKGRFTISRDNAKNTVYLQMNSLKPEDTAVYYCAAPVAYRGSRNFIYRYNYWGQGTQVTVSS | high polyreactivity
6 | QVQLVESGGGLVQAGGSLRLSCAASGFTFVYYNMGWYRQAPGKERELVAAITQSGGRTYYADSVKGRFTISRDNAKNTVYLQMNCLKPEDTAVYYCAARLWGKRDYRMDYWGQGSQVTVSS | high polyreactivity
7 | QVQLVESGGGLVQAGGSLRLSCAASGSIFGVNAMGWYRQAPGKERELVATIRQRGTSTYNADSVKGRFTISRDTAKNTVYLQMNSLKPEDTAVYYCAARGGVLKGYYYWGQGTQVTVSS | high polyreactivity
8 | QVQLVESGGGLVKAGGSLRLSCAASGSTFRYYVMGWYRQAPGNERELVAAISRGGRTYYADSVKGRFTISRDNAKYSVYLQMNSLKPEDTAVYYCAVDYIVQSGSRIAGDYWGQGTQVTVSS | high polyreactivity
9 | QVQLVESGGGLVQAGGSLRLSCAASGRIFGVNAMGWYRQAPGKERELVAAISVSGDSTYYADSVKGRFTISRDNAKNTVYLQMNSLKPEDTAVYYCNAGFTFVPADLTDEYYWGQGTQVTVSS | low polyreactivity
10 | QVHLVESGGGLVQAGGTLRLSCAATGRTIYDNAMGWYRQAPGKESELVAVISRSGSTYYADSVKGRFTISRDNAKNSVYLQMNSLKPEDNAVYYCARRGVWGVTYSRLYHWGQGTQVTVSS | high polyreactivity
11 | QVQLVESGGGLVQAGGSLRLSCAASGRIFSGYAMGWYRQAPGKERELVAAITWNGVSTYYADSVKGRFTISRDNAKNTVYLQMNSLKPEDTAVYYCNAEVYSDPYNDHDYWGQGTQVTVSS | low polyreactivity
12 | QVQLVESGGGLVQAGGSLRLRCAASGRTFAINALGWYRQAPGKEREDVASITTSGGRTYYADSVKGRFTISRDNAKNTVYLQMNSLKPEDTAVYYCNAGSYVGSWRFPYYYWGQGTQVTVSS | high polyreactivity
13 | QVQHVESGGGLVQAGGSLRLSCAASGRIFYCYAMGWYRQAPGKERELVAAISWSGGSTYYADSVKGRFTISRDNAKNTVYLQMNSLKPEDTAVYYCARRYRGGYKYDYWGQGTQVTVSS | high polyreactivity
14 | QAELVESGGGLVQAGGSLRLSCAASGLTFRAYAMGGYRQAPGKERELVAAISWNGGSTYYADSVKGRFTISRDNAKNTVYLQMNCLKPEDTAVYYCNAYDYQYFYGYEYDYWGQGTQVTVSS | high polyreactivity
15 | QVQLVESGGGLDQAGGSLRLSCAAYGSIFYGYAMGWYRTAPGKERELVAAITSGGSTYYADSVKGRFTISRDNAKNTVYLQMNSLKPEDTAVYYCAATFCTWYSWYDYWGQGTQVTVSS | high polyreactivity
16 | QVQLVESGGGLVQAGGSLRLSCAASGFTFSYNAMGWYRQAPGKERELVAAITYSAGNTYYADSVKGRFTISRDNAKNTVYLQMNSLKPEDTAVYYCNAVTKHRAITNMDYWGQGTQVTVSS | high polyreactivity
17 | QVQLVESGGGLVQAGGSLRLSCAASGSTFSYNAMGWSRQAPGKERELVAAISSAISTNYADSVKGRFTISRDNAKNTVYLQLNSLKPDDTAVYYCNKVPDFVFLISYQLYYTKRLGYWGQGTQVNVSS | low polyreactivity
18 | QVQLVESGGGLVQAGGSLRLSCAASGRIYYAYTMGWYIQAPGKERELVAAISGSGSTYYADSVKGRFSISRDNAKNTVYLQMNSLKPEDTAVYYCAADVTGGRKYDYWGQGTQVTVSS | low polyreactivity
19 | QVQLVESGGGLVQAGCSLRLSSAASGTIFGYYTMGRYRQAPGKEREIVAAISRSGGSTYYADSVKGRFTISRDNAHNTGYLQMNSLKPEHTAVYYCNADVYWEYDYWGQGTQVTVSS | low polyreactivity
20 | QVQLVESGGGLVQAGGSLRLSCAASGFTYKYYVMGWYRQAPGKERELVASISKRGGSTRYADSVKGRFTISRDYAKNTVYLQMNSLKPEDNAVYYCAAAFVRRPPYVGYSRFDYWGQGTQVTVSS | high polyreactivity

Row | Sequence | polyreactivity (PSR sort gate)
21 | QVQLVESGGGLVQAGGSLRLSCAASGRIFRYKAMGWYRQAPGKERELVAAISGSGGSTYYADSVKGRFTISRDNAKNTVYLQMNSLKPEDTAVYYCNALYWIFNHGGYDYWGQGTQVTVSS | low polyreactivity
22 | QVQLVESGGGLVQAGGSLRLSCAASGSTFAQNTKGWYRQAPGKERELVATISDGGGSTYYADSVKGRFTISRDNAKNTVYLQMNSLKPEDTAVYYCNTDRFWPSDYWGQGTQVTVSS | low polyreactivity
23 | QVQLVESGGGLVQAGGSLRLSCAASGSIFGTNAMGWYRQAPGKERELVAAIDGGSTTYYADSVKGRFTISRDNAKNTVYLQMNSLKPEDTAVYYCAADGSRYLNYEGYAGYEYWGQGTQVTVSS | low polyreactivity
24 | QVQLVESGGGLVQAGGSLRLSCAASGSTISYYAMGWYRQAPGKERELVAAITWNGGSTYYADSVKGRFTISRDNAKNTVYLQMNSLKPEDTAVYYCAKDSYYYDYDYWGQGTQVTVSS | low polyreactivity
25 | QVQLVESGGGLVQAGGSLRLICAASGSTFATYSMGWYRQAPGKERELVAAITLRGGRTYYADSVKGRFTISRDNAKNTVYLQMNSLKPEDTAVYYCAAEYYYLSFGLTWWRGFDYWGQGTHVTVSS | high polyreactivity
26 | QVQLVESGGGLVQAGGSLRLSCAASGSIFWLYAMGWYRQAPGKERELVAAMSWSGTSTNYADSVKGRFTISRDIAKNTVYLQMNRLKPEDTAVYYCAKRWNNQKLFGYEEEYDYWGQGTQVTGSS | low polyreactivity
27 | QVQLIESGGGLVHAGGSLRLSCAASGSTYQANTMGWYSHAPGKERQLVAAISIRGANTYYADSVKGRFTISRDNAKNTVYIQMNSLKPEDTAVYDCATRVRKYSLRLDYWGQGTQVTVSS | high polyreactivity
28 | QVQLVESGGGLVQAGGSLRLSCAASGFTFRVYAMGWYRPAPGKERELVAAISVRGDSTYYADSVKGRFTISRDNAKNTVYLQMNSLKPEDTAVYYCNAALLGKQYYSNPNYDYWGQGTQVTVSS | high polyreactivity
29 | QVQLVESGGGLVQAGGSLRLSCAASRYIFSRNAMGWYRQAPGKERELVAAISLRGGSTYFADSVKGRFTISRDNAKNTVYLQMNSLKPEDTAVYYCAAPLFSGYDYWGQGTQVTVSS | low polyreactivity
30 | QVQLVESGGGLVQAGGSLRLSCAASGFTFRDYAMGWYRQAPGKERELVAAISRSGDSTYYADSVKGRFTISRDNAKNTVYLQMNSLKPEDTAVYDYAAKRRYTTYDYWGQGTQVTVSS | high polyreactivity
31 | QVQLVQSGGGLVQAGGRLRLSCAASGRIFYYYTMGWYRQAPGKERELVAVISRSGDRTYYADSVKGRFTISRDIAKNTVYLQMNSLKPEDTAVYYCATRWSSARMDYCGQGTQVTVSS | high polyreactivity
32 | QVQLVESGGGLVQAGGSLRLSCAASGSTFDTNAMGWSRQAPGKERELVAAISASGGSTYYADSVKGRFTISRDNAKNTVYLQMNSLKPEDTAVYYCAKTYSTRWWGNGGDYWGQGTQVTVSS | high polyreactivity
33 | QVQLVESGGGLVQAGGSLRLSCAASGSPFRHYALGWYRQAPGKERELVAVISWGGTSTYYADSGKGRFTISRDNAKNTVYLQMNSLKPEDSAVYYCNADSNWYYQWNYYGLYDYWGQGTQVTVSS | low polyreactivity
34 | QVQLLESGGGLVQAGGSLRLSCAASGSIFLTYAMGWYRQAPGKERELVAAISSSGGSTYYADSVKGRFTISRDNSKNTVYLQMNSLKPEVTAVYYCNAAYHFRRTLGRDHWGQGTEVTVSS | low polyreactivity
35 | QVQLVESGGGLVQAGGSLRLSCAASGITFQHYSMGWYRQAPGKERELVAAISSSGGRTYYADSVKGRFTISRDNAKNTVYLQMNSLKPEDTAVYYCNGVDRYNRFDSWGQGTQVTVSS | high polyreactivity
36 | QVQLVESGGGLVQAGGSLRLSCAASGIIFPRYMGWYRQEPGKERELVAAIRWSSDDTNYADSVKGRFTISRDNAKNTVYLQMNSLKPEDSAVYYCAKDSLYGVPFDVDYWGQGTQVTVSS | low polyreactivity
37 | QVQHVESGGGLVQAGGSLRLSCAASGIILRSNAMGWYRQAPGKERELVAAINYSGGRTYYADSVKGRFTISRDTAKNTVYLQMNSLKPEDTAVYYCAAGGYPYGLSRVKLYYWGQGTQVTVSS | high polyreactivity
38 | QVQHVESGGGLVHAGGSLRLSCAASGSIASYAMGWYRHATGKEKELVAGISWSGGSTYYADSVKGRFTISRDNAKNNVYLQMISLKPEDTAVYYCAARRFCPNRDSRMGYWGQGTQVTVSS | high polyreactivity
39 | QVQLVESGGGLVQAGGSLRLSCAASGGTFWIYAMGSYRQAPGKERELVAGISHGDSTYYADSVKGRFTISRDNAKNTVYLQMNSLKPEDTAVYYCARDYRNPPFAYEYWGQGTQVTVSS | low polyreactivity
40 | QVQLVESGGGLVQAGGSLRLSCAASGFTFRGYAMGWYRQAPGKERELVAAITAGGGSTSYADSVKGRFTISRDNAKNTVYLQMNSLKPEDTGVYYCARRPGTRTYLSKWGSKYDYWGQGTQVTVSS | high polyreactivity
